Here are results for six molecules from article doi:10.1101/2023.01.20.524964 (bioRxiv, 2023).

Assay [1] deals with Karyopherin-β2 (full length, GST tag removed) (UniProt Q92973). In words: ITC. A general note: Isothermal titration calorimetry measures the heat released or taken up as one component is titrated into another.
The next assay concerns the target T1, Kapβ2(W373A) (UniProt Q92973-2 1-890, W373A).
T1 sequence (looked up): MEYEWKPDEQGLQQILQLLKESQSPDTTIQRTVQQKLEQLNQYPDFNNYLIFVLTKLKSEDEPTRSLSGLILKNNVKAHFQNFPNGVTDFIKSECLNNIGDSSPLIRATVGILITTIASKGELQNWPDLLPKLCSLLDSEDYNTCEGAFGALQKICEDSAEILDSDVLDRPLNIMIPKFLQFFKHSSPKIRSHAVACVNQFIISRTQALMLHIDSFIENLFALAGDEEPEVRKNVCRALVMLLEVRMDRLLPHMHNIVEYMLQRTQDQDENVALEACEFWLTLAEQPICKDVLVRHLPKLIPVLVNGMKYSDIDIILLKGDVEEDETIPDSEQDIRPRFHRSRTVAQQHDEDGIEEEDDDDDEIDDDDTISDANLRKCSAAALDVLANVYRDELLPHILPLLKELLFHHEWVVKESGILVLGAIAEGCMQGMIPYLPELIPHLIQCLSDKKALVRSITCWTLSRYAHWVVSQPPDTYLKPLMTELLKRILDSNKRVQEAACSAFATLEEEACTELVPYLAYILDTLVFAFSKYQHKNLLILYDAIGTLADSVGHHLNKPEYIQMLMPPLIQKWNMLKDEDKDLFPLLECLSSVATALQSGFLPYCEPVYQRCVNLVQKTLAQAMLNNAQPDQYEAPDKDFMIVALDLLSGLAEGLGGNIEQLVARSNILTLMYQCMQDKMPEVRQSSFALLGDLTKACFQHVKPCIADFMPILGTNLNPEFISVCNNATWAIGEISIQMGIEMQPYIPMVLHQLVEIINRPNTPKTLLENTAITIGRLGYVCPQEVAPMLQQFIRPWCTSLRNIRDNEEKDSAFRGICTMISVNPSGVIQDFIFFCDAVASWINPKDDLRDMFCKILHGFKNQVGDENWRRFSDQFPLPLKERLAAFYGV
In words: ITC.

Assay [2] has as its target T2, Karyopherin-β2 (full length, GST tag removed) (UniProt Q92973-2 1-890).
T2 sequence (looked up): T1 sequence (looked up) with A373W
In words: ITC.

Assay [3] has as its target T2, Karyopherin-β2 (full length, GST tag …). In words: SEC. A general note: In gel filtration, larger molecules generally elute earlier.

Substitutions are numbered along the chain they refer to. Names may count otherwise.

Karyopherin-β2 (full length, GST tag removed) (UniProt Q92973), sequence (Q92973 9-898): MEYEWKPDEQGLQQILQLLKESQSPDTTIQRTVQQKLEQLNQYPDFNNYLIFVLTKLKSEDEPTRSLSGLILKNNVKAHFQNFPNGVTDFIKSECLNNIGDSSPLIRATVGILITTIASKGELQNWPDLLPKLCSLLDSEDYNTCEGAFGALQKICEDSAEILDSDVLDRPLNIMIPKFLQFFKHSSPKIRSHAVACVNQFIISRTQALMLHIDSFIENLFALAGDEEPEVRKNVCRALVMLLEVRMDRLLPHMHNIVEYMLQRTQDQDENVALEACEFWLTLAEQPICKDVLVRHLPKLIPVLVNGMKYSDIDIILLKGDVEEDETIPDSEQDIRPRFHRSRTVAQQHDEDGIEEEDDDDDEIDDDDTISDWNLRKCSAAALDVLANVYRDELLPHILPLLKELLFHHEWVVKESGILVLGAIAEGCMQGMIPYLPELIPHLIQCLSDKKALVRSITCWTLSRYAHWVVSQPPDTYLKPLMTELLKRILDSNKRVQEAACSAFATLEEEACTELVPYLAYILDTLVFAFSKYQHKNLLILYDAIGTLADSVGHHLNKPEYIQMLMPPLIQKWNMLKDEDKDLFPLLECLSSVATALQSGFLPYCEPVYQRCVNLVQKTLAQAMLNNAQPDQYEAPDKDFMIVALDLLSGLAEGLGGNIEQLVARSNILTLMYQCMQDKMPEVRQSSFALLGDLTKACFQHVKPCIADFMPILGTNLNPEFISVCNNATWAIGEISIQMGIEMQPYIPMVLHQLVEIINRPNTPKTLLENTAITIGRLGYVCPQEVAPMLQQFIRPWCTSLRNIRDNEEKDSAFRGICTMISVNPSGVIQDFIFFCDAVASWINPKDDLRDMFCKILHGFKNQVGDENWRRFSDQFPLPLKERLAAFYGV

Take “MBP-HNRNPH2 R212A (ITC) (from UniProt P55795 103-225) (domain or fragment)”: the Kd – broadly, the constant that tells how readily two partners part at equilibrium – in assay [1] amounted to 3200 nM.

In turn, HNRNPM PY-NLS (domain or fragment) registered a Kd with Kapβ2(W373A) of 9 nM.

B1: MBP-HNRNPH2(190-225) (domain or fragment, UniProt P55795 190-225, looked up)
chain: EVRTHYDPPRKLMAMQRPGPYDRPGAGRGYNSIGRG
Take B1: the equilibrium dissociation constant (Kd) in assay [2] is 40 nM.

B2: MBP-HNRNPH2(103-225) (domain or fragment, UniProt P55795 103-225, looked up)
chain: NSPDTANDGFVRLRGLPFGCSKEEIVQFFSGLEIVPNGMTLPVDFQGRSTGEAFVQFASQEIAEKALKKHKERIGHRYIEIFKSSRAEVRTHYDPPRKLMAMQRPGPYDRPGAGRGYNSIGRG
For B2, the Kd in assay [2] amounted to 50 nM; with Kapβ2(W373A), 6100 nM.

B3: HNRNPH2(103-225) (as used for SEC and cryo-EM) (domain or fragment, UniProt P55795 103-225, looked up)
chain: B2 chain
modifications: mild crosslinking with 0.025% glutaraldehyde in the cryo-EM sample
On to B3, for which the binding result in assay [3] is listed as “binds”.

B4: MBP-HNRNPH2(103-225) P209L (domain or fragment, UniProt P55795 103-225, looked up)
chain: B2 chain with P107L
With B4, the “fold decrease of affinity against wild type” value in assay [2] is roughly 200 fold.
